From patent publication JP2010500380A

Target: 白血球IFN (leukocyte IFN, Sigma I-2396)
Test: cell-based or functional assay

B1: ACO-1 (antibody, V domains shown)
VH: QVQLQQPGAELVKPGASVKLSCKASGYTFTNYWMHWVKQRPGQGLEWIGEINPSHGRTIYNENFKSKATLTVDKSSITAFMQLSSLTSEDSAVYFCARGGLGPAWFAYWGQGTLVTVSA
VL: QIVLTQSPAIMSASPGEKVTLTCSAGSSVDSSYLYWYQQKPGSSPKLWIYSTSNLASGVPARFSGSGSGTSYSLTISSMEAEDAASYFCHQWSSYPFTFGSGTKLEIKR
B1 was tested, and the percent block of bioactivity, RG bioassay, 600 pg leukocyte IFN was greater than 50%.
